Results on four molecules are retold here after article PMC7954740, “Degradation of the low-calorie sugar substitute 5-ketofructose by different bacteria” (Applied Microbiology and Biotechnology, 2021).

For orientation: Km means the substrate concentration at which the rate is half of its maximum. The kcat is the number of substrate molecules converted per active site and unit of time at saturation.

What all share (assay): purified protein
Series [1] deals with O=C(CO)[C@@H](O)[C@H](O)C(=O)CO. It counts as biochemical, Gluconobacter oxydans. Conditions: NADPH co-substrate, pH 7, 35 °C (optimum).
Substrate in series [2]: NC(=O)C1=CN([C@@H]2O[C@H](COP(=O)(O)OP(=O)(O)OC[C@H]3O[C@@H](n4cnc5c(N)ncnc54)[C@H](OP(=O)(O)O)[C@@H]3O)[C@@H](O)[C@H]2O)C=CC1
Conditions: 5-KF co-substrate, pH 7.0, 30 °C, varied: cofactor.

Substrate in series [3]: O=C(CO)[C@@H](O)[C@H](O)C(=O)CO
As to conditions: NADPH co-substrate, pH 7.0, 30 °C, potassium phosphate.

Substrate in series [4]: NC(=O)C1=CN([C@@H]2O[C@H](COP(=O)(O)OP(=O)(O)OC[C@H]3O[C@@H](n4cnc5c(N)ncnc54)[C@H](OP(=O)(O)O)[C@@H]3O)[C@@H](O)[C@H]2O)C=CC1
In kind it is biochemical, Clostridium pasteurianum. Conditions: 5-KF co-substrate, pH 6, 40 °C (optimum), varied: cofactor.

Substrate in series [5]: O=C(CO)[C@@H](O)[C@H](O)C(=O)CO
In kind it is biochemical, Clostridium pasteurianum. As to conditions: NADPH co-substrate, pH 6, 40 °C (optimum).

Substrate in series [6]: O=C(CO)[C@@H](O)[C@H](O)C(=O)CO
In kind it is biochemical, Gluconobacter oxydans. As to conditions: NADPH co-substrate, pH 7, 30 °C (optimum).

With GOX0644 (Gluconobacter oxydans 621H), in series [1], the Km was determined as 4000 ± 800 µM and the kcat came to 18.9 ± 1.2 s⁻¹.

B1: TM-KFR (Tatumella morbirosei) (protein)
chain: AEQQNFLSELTGSFSSPCNENPTVAMMEEAYRHQGINARYINCDVGKQQLEMAVAGAKAMGWRGFNCSIPNKQAILSYIDEVGTSAKVIGAVNCVIIREGKLTGENTDGKGFVEALKQQIDPEGKKLALLGAGGAARAIAVESALAGVSEITIINRDKAKGEALAELINANTDATATYVEWSSGLKVDKNFDILVNATSVGLDDAEAMPDIDTDSLSEELFVADVIPNPPQTALLRAASDKGCRTLNGLNMLVNQGALNLAYWFDTTADKAPMRKVLQTLFTG
B1: the Km in the series “purified protein [2]” turned out to be 20.4 ± 11.5 µM. In addition, in “purified protein [3]”, the Km stood at 6400 ± 600 µM and the turnover number (kcat) was 913.9 ± 85.2 s⁻¹.

B2: CP-AKR (Clostridium pasteurianum DSM 525 = ATCC 6013) (protein)
chain: MVKSIKDVITLNNGVEIPQHGFGVYLITDEEKAYKAINKALEVGYRAFDTAQFYENEPLLGKILNESSLSRDELFITTKVANYNQGYDSTLSTVEQSLKDLRVDQLDLLLIHWPSKKRFFETWRAMEKLYNEKLVKAIGVSNYEIHHLEELISNSDIKPVIDQVESHPYLIQQELKDYVDKNNIAFQAWSPLGRGAVLKDPIIKIIAEQHNKSIAQVIIRWHLQKGNIVIPKSITPSRIEENADVYDFALTEEEMKIIDALNRAERTGDDPDSIYFQM
B2: the Km in “purified protein [4]” was determined as 12.4 ± 3.8 µM; in “purified protein [5]”, 1300 ± 200 µM. In the series “purified protein [5]”, the kcat worked out at 29.3 ± 4.3 s⁻¹.

B3: GOX1432 (Gluconobacter oxydans 621H) (protein)
chain: MITRETLKSLPANVQAPPYDIDGIKPGIVHFGVGNFFRAHEAFYVEQILEHAPDWAIVGVGLTGSDRSKKKAEEFKAQDCLYSLTETAPSGKSTVRVMGALRDYLLAPADPEAVLKHLVDPAIRIVSMTITEGGYNINETTGAFDLENAAVKADLQNPEKPSTVFGYVVEALRRRRDAGGKAFTVMSCDNLRHNGNVARKAFLGYAKARDPELAKWIEENATFPNGMVDRITPTVSAEIAKKLNAASGLDDDLPLVAEDFHQWVLEDRFANGRPPLEKAGVQLVDDVTDWEHVKIRMLNAGHITLCFPGILVGYENVDDAIEDKDLRGNLENYLNKDVIPTLKAPPGMTLEGYRDSVISRFSNKAMSDQTLRIASDGCSKIQVFWTETVRRAIECKRDLSRIAFGIASYLEMLRGRDEKGGTYESSEPTYGEAQKKLAKADDFESALKLPAFDGWRDLDTSELDQKVIALRKVIREKGVKAAIPA
Regarding B3, in the series “purified protein [6]”, the Km amounted to 42000 ± 5400 µM and the kcat was 214.6 ± 7.5 s⁻¹.
